{"source": "paper PMC10923870", "about": "“A three-level regulatory mechanism of the aldo-keto reductase subfamily AKR12D” (Nature Communications, 2024)", "molecules": {"B1": {"name": "AKRtyl (tylosin reductase, aldo-keto reductase AKR12D1) (enzyme, S. fradiae)", "chain": "MEYTQLGRIGLKVSRLVLGTMNFGPTTDEAESHAIMDAALDAGINFFDTANVYGWGENKGRTEEILGSWFAQGGDRRDKVVLATKVYGNMGLDGPAWPNHDKLSALNIRRSVDASLKRLGTDHIDLYQFHHVDRDTPWDEIWQAMDVLVRQGKILYVGSSNFAGWNIAQANETAARHGRLGLVSEQCLYNLCERRAEMEVVPAAREYGLGVIAWSPLHGGLLGGAIRKEQEGGNRRAASGRAADALKDPQQREQIQRYEDLLDKHGLEPGEVALAWLLTRPGVTGPIVGPRTADQLASAVRAAELTLTDEVLTALDEIFPGPGPSPEAFAW", "notes": "AKRtyl, tylosin reductase of the tylosin producer S. fradiae, UniProt A0A3R7J519; protein coding gene cloned into pET28a between NdeI and XhoI; Octamer made of two homotetramers; also called WT; source: E. coli BL21 (DE3), purified (Ni-NTA, size-exclusion chromatography on Superdex 200 increase)"}}, "key": {"[1]": {"test_system": "NC(=O)C1=CN([C@@H]2O[C@H](COP(=O)(O)OP(=O)(O)OC[C@H]3O[C@@H](n4cnc5c(N)ncnc54)[C@H](OP(=O)(O)O)[C@@H]3O)[C@@H](O)[C@H]2O)C=CC1", "experiment": "tryptophan fluorescence quenching (equilibrium and stopped-flow); steady-state kinetics (Km)", "format": "biochemical, Streptomyces xinghaiensis", "details": "Trp331 of the C-terminal tail loop contributes to binding of both NADPHs; varied: cofactor"}, "[2]": {"target": "T1, AKRtyl (Streptomyces xinghaiensis, UniProt A0A3R7J519)", "T1 construct": "gene SFRA_012675; N-terminally His6-tagged AKRtyl, octamer", "experiment": "X-ray crystal structure ([…] Å), equilibrium tryptophan fluorescence quenching and stopped-flow", "format": "binding"}, "[3]": {"target": "T2, AKR_coelicolor (Streptomyces coelicolor, UniProt Q9F2Z5)", "T2 construct": "gene SCO4352", "T2 sequence (Q9F2Z5 1-330)": "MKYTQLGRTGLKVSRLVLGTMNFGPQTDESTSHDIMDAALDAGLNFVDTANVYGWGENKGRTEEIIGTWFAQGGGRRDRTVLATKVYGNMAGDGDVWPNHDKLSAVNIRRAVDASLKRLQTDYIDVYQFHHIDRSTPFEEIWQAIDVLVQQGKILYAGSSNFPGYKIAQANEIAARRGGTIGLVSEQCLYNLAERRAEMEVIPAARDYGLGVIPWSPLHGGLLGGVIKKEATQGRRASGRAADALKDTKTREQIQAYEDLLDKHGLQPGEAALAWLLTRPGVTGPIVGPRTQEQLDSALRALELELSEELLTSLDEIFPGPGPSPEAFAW", "experiment": "steady-state kinetics, inhibition at high NADPH concentration", "format": "biochemical"}, "[4]": {"target": "the molecule itself", "experiment": "crystal structure; sitting-drop vapour diffusion at 20 °C; AKRtyl at 10 mg/ml in 10 mM Tris-HCl pH 7.5, 150 mM NaCl; purified-state, apo, NADP(H), NADP+-tylosin and tylosin forms, all octameric"}}}
{"molecule": "AKRtyl (Streptomyces xinghaiensis; W331A)", "values": [{"measurement": "K0.5", "setting": "[1]", "value": 11.03, "unit": "µM"}, {"measurement": "kcat", "setting": "[1]", "value": "0.18 ± 0.01", "unit": "s⁻¹"}, {"measurement": "kcat/Km", "setting": "[1]", "value": 16300, "unit": "M⁻¹ s⁻¹"}]}
{"molecule": "NC(=O)C1=CN([C@@H]2O[C@H](COP(=O)(O)OP(=O)(O)OC[C@H]3O[C@@H](n4cnc5c(N)ncnc54)[C@H](OP(=O)(O)O)[C@@H]3O)[C@@H](O)[C@H]2O)C=CC1", "note": "[NADPH]", "values": [{"measurement": "Kd", "setting": "[2]", "value": 450, "unit": "nM"}, {"measurement": "steady-state kinetics, inhibition at high NADPH concentration", "setting": "[3]", "value": "inhibition by the cofactor NADPH at high concentrations was also observed for these two AKRs"}]}
{"molecule": "B1", "values": [{"measurement": "stoichiometry N", "setting": "[4]", "value": 8}]}
